Data on one substance can be found in US20190225703A1.

The target of this experiment is cynomolgus CD73 expressed at the cell surface (cynomolgus). The experiment in a line: flow cytometry titration on cynomolgus-CD73-expressing cell line.

The EC50 is the concentration giving half of the maximal effect.

Regarding “antibody AD2 (Biolegend Corp, product ref. 344004)”, the EC50 turned out to be 1.15 µg/mL and the fold higher concentration (EC50) than 7H10 worked out at 4 fold.
